Values of other authors in patent US20160346224A1, “COMPOSITIONS AND METHODS FOR REDUCING VISUAL LOSS” (Edge Therapeutics, Inc., priority 2015, published 2016).
No end group written: not given here.

How the values were obtained:
N-type calcium current = N-type calcium current (Homo sapiens, UniProt Q00975); details: at 300 nM to 500 nM
[1] = tested on: R-type current in preparations of the neuronal cell body, retinal ganglion cells and hippocampal pyramidal cells
[2] = biological target: T1, R-type calcium current in the neurohypophysial nerve endings (Rattus norvegicus, UniProt Q07652); details: at 40 nM concentration
T1 construct: R-type calcium current in the neurohypophysial nerve endings at 40 nM concentration; host or cells: neurohypophysial nerve endings (native tissue preparation)

[3] = tested on: K+ and Na+ currents, and L, P/Q and T-type calcium currents

Chain of N-type calcium current (Q00975 whole entry): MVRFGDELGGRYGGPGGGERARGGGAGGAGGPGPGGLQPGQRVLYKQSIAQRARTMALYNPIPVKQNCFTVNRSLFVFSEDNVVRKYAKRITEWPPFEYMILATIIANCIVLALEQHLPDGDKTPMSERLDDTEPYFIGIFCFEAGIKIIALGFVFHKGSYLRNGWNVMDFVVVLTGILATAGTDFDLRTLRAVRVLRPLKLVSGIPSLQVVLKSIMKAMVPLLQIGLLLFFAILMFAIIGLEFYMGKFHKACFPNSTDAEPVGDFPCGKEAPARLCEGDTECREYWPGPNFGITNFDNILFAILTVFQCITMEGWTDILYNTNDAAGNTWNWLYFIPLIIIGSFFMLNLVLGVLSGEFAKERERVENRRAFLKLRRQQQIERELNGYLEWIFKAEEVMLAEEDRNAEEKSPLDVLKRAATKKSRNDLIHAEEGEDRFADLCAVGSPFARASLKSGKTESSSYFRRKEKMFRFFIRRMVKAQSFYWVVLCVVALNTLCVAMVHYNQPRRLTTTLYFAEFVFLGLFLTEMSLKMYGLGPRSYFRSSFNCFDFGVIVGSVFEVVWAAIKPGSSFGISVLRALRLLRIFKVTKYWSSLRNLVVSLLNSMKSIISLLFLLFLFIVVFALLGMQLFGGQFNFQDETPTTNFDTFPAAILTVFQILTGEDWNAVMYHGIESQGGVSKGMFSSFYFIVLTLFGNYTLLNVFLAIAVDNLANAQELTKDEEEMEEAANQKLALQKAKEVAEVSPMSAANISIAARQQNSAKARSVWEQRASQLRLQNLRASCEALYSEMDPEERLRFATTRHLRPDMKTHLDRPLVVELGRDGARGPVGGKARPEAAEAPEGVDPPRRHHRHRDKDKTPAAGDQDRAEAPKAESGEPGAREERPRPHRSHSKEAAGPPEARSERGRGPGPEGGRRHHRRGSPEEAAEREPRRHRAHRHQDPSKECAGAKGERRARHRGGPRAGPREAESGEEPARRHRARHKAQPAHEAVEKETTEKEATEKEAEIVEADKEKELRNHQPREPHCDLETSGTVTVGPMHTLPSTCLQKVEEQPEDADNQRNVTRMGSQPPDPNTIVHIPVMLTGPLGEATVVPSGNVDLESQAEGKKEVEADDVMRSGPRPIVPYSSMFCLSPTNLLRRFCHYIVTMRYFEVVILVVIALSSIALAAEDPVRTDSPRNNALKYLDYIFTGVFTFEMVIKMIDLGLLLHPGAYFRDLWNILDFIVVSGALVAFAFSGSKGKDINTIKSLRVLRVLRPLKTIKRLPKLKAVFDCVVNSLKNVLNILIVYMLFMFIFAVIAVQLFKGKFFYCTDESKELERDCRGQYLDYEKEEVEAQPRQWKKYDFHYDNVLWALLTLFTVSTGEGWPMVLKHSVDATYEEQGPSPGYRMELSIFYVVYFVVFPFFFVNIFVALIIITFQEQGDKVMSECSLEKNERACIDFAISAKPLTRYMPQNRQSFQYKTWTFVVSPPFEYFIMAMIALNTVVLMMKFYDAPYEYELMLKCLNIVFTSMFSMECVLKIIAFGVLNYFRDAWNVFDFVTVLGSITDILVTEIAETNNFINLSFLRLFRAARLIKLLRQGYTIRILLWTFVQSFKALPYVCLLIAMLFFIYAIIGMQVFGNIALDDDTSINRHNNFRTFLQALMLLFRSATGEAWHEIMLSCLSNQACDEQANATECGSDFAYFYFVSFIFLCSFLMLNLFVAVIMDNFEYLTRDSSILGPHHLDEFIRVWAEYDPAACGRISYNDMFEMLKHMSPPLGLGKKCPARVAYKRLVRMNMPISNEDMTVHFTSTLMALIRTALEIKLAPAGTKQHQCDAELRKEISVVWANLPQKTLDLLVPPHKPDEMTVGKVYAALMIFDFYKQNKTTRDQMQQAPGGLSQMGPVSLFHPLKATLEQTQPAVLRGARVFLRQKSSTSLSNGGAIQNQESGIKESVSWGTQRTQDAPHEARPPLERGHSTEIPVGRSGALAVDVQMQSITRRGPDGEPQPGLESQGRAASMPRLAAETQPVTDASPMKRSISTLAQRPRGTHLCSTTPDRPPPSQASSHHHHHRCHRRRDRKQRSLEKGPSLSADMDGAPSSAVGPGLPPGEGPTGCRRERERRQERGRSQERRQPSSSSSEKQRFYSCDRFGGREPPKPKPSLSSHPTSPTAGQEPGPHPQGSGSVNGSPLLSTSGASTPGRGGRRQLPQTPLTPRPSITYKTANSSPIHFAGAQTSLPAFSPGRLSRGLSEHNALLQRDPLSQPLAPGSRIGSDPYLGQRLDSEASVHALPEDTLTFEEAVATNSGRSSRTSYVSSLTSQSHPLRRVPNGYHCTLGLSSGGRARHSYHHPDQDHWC
T1 sequence (Q07652 whole entry): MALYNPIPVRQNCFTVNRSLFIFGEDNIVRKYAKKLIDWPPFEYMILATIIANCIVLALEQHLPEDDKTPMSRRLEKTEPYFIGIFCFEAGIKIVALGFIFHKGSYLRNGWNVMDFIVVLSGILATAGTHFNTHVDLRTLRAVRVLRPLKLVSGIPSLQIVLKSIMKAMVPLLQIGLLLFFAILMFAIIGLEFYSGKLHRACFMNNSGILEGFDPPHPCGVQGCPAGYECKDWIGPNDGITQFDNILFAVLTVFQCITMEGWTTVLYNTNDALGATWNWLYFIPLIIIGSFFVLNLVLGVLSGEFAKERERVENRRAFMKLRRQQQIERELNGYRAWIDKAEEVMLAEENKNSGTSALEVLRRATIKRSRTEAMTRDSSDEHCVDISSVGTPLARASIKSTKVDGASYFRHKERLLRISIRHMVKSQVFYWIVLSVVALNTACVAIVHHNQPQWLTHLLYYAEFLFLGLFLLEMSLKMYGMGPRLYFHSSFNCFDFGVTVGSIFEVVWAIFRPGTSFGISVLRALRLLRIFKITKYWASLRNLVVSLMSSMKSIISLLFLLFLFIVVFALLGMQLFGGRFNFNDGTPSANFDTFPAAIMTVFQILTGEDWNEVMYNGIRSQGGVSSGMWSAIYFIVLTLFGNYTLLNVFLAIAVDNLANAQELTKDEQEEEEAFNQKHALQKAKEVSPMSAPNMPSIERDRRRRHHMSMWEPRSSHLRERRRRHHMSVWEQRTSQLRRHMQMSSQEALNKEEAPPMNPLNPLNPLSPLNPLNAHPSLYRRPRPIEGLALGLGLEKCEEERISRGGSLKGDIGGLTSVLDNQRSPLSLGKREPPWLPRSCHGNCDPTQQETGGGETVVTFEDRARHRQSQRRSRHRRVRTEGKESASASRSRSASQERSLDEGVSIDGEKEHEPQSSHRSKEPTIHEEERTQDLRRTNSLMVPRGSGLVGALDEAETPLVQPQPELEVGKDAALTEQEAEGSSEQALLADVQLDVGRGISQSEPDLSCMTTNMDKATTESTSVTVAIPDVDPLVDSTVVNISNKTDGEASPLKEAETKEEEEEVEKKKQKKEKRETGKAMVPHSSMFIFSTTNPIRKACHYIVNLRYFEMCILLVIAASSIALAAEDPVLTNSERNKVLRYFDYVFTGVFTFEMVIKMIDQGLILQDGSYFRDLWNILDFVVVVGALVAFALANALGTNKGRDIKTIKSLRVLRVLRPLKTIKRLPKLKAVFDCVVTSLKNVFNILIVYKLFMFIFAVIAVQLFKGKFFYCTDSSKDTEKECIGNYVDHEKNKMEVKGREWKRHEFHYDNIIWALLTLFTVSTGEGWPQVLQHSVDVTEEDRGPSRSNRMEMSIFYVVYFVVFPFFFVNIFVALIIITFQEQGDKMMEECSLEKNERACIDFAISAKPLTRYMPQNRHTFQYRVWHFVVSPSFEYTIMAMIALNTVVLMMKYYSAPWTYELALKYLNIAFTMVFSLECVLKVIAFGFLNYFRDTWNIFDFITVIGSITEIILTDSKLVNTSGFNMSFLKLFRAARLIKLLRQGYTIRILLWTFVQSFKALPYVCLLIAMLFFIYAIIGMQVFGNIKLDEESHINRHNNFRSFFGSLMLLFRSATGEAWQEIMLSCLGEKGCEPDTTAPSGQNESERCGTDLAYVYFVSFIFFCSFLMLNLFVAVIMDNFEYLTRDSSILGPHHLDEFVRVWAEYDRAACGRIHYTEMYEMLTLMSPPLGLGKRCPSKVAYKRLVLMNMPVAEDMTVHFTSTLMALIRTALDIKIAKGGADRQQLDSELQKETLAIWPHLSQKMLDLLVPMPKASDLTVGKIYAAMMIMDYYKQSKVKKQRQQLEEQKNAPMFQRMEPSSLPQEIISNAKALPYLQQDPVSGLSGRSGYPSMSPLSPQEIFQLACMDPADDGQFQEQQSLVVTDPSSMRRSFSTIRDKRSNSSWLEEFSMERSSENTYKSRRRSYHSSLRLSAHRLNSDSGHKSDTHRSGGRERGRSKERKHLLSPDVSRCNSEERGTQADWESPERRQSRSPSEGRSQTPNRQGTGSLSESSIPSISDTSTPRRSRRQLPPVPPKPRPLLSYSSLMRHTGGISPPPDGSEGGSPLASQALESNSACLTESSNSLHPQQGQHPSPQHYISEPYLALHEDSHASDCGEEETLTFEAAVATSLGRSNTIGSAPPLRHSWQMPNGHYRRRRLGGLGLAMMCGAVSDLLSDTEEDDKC

Substance: SNX-482: toxin from the tarantula Hysterocrates gigas, a 41 amino acid residue peptide with 3 disulfide linkages; putative R-type selective antagonist (GVDKAGCRYMFGGCSVNDDCCPRLGCHSLFSYCAWDLTFSD; disulfide (positions not given here); also: 3 disulfide linkages, pairings not given here; UniProt P56854 1-41, looked up)
- block of N-type calcium current (N-type calcium current): 30-50%
- effect on R-type current [1]: no significant effect
- block of R-type calcium current [2]: blocks
- effect on K+ and Na+ currents, and L, P/Q and T-type calcium currents [3]: no effect
